Patent US6342394

Target: human steroid 21-hydroxylase (21-OH), 125I-labelled (human) (UniProt P08686)
Test: 125I-21-OH + protein A; competitor: autoantibodies in pooled patient sera; irrelevant control Fab

UniProt P08686, sequence (P08686 whole entry): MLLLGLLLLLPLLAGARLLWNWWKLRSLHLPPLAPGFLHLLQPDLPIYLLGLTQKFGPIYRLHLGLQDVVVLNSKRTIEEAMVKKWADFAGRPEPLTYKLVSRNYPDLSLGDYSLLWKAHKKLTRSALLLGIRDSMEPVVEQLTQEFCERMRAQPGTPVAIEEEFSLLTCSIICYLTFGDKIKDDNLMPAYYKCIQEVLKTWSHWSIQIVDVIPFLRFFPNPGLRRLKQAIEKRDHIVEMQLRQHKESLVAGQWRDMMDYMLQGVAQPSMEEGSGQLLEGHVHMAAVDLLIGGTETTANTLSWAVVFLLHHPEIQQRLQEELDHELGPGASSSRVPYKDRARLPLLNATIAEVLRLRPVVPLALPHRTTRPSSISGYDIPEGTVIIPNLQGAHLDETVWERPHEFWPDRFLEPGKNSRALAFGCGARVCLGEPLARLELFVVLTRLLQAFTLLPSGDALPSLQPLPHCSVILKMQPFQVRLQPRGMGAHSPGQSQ

% inhibition of 125I-21-hydroxylase binding: < 15%
Substance: control Fab from a TSH receptor (TSHR) mouse monoclonal antibody
